Target: eJMC^Y859A (eJMC mutated in the first amino acid of the YXXΦ sequence) fused to GFP (Arabidopsis thaliana), Q9FL28
Experiment: cell-based or functional assay

Chain of eJMC^Y859A (eJMC mutated in the first amino acid of the YXXΦ sequence) fused to GFP (Arabidopsis thaliana), Q9FL28 (Q9FL28 other isoform, or with tags, fused parts or gaps Y859A Y859A): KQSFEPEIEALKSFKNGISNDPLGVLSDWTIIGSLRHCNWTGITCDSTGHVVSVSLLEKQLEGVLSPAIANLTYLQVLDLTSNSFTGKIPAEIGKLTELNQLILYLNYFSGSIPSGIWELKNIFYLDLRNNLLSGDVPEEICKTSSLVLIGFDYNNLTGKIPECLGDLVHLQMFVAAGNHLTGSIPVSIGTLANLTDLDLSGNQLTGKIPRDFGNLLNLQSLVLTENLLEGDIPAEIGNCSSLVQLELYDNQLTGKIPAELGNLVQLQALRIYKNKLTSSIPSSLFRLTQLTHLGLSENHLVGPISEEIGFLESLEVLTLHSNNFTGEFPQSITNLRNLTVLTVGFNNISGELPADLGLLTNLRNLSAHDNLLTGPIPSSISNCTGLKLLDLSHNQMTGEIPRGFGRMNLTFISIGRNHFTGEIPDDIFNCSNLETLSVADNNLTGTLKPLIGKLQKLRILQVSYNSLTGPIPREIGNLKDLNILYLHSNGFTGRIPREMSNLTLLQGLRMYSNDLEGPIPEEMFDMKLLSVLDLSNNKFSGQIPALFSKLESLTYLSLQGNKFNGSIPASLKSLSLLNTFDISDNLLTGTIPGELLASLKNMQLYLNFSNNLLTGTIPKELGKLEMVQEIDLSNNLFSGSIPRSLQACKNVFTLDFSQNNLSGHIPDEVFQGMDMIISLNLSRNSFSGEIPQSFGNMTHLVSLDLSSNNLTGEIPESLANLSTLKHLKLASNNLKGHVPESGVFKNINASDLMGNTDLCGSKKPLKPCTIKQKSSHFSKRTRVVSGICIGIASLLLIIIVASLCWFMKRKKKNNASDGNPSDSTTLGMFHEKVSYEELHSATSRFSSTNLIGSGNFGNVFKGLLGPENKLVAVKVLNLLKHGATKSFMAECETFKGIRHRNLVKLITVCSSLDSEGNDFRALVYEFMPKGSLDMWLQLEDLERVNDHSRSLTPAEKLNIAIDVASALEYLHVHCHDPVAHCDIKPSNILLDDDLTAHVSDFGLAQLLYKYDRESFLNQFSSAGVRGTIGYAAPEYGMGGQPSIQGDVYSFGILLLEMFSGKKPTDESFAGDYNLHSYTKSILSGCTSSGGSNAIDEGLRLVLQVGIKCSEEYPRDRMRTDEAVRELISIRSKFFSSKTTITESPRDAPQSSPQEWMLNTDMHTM

Binder: QRLSTGSRINSAKDDAAGLQIA [flg22 (peptide derived from bacterial flagellin)]
- ethylene accumulation, agroinfiltrated tobacco leaf explants, against the negative control: 4.8 times

From patent publication US20120137392A1
